Test [1] has as its target T1, A-domain of CD11b (UniProt P11215 139-337).
T1 construct: domain: A-domain; Used as the ligand in BLI (Octet); also called CD11b A-domain; CD11bA domain
Description: BLI (Octet), A-domain of CD11b as ligand. The protocol: Production, purification, and evaluation: Expi293 cells (Thermo Fisher) were used to produce recombinant antibodies. Cells were grown on orbital shaker (125 rpm) in Expi293 Expression Medium (Thermo Fisher) at 37° C. in 5% CO2. Expi293 cells were transiently transfected with 1:1 heavy chain and light chain plasmids, using manufacturer's protocol. Culture supernatant was harvested after one week, and IgG was purified using Protein G agarose beads (Thermo Scientific). We routinely obtained 1-3 mg of purified IgG per 100 ml of cell culture. The protein sizes of the heavy and light chains and purity of the IgG were confirmed on SDSPAGE. Affinity of the humanized mAb107 vs. mouse mAb107 was measured using the A-domain of CD11b as ligand by Bio-layer interferometry (BLI) using the Octet Assay system.
In general terms: BLI is a label-free optical method that tracks binding on a fibre tip over time.

The target in test [2] is T1, A-domain of CD11b. Description: assay not given; presumably BLI on the CD11b A-domain as in Example 1; lower end of the printed range 5-9 nM.

T1 sequence (P11215 139-337 limits assumed): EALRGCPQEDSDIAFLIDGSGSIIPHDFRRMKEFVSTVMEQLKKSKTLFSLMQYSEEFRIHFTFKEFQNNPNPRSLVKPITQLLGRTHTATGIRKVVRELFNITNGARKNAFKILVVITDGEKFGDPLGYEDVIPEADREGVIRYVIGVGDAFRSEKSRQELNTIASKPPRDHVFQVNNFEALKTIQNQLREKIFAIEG

B1: humanized N55D-substituted mAb107 (humanized IgG4κ mAb107) (antibody, V domains shown)
VH: QVQLVQSGAEVKKPGASVKVSCKPSGFNIKDIYMQWVRQAPGQRLEWIGRIDPADDKTKYDPKFQGRATITADTSASTAYLELSSLRSEDTAVYYCASEGHYGYDGYAMDYWGQGTTVTVSS
VL: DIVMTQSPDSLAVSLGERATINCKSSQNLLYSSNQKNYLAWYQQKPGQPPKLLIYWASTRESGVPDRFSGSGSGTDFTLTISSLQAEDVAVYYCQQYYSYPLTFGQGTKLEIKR
notes: The VH was joined to a human IgG4 constant region and the VL to a human kappa constant region; also called humAb107; humanized mAb107
In the case of B1, in the test with A-domain of CD11b [1], the Kd (in general, the free concentration of one partner at which half of the binding sites on the other are occupied at equilibrium, for simple one-to-one binding) is 5 to 9 nM.

B2: Humanized mutagenized mAb107 IgG4k heavy chain V5 (antibody, V domains shown)
VH: B1 VH
VL: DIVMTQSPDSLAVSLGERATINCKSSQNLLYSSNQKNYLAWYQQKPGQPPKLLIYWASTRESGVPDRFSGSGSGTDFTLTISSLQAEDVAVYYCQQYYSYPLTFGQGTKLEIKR
notes: The residue limits were counted on the printed translation; The heavy chain carries the N-to-D substitution in CDR2 and S228P in the IgG4 hinge; also called Humanized mutagenized anti-CD11b; humanized IgG4κ mAb107 containing Pro 228
With B2, the Kd with A-domain of CD11b [2] fell in the range of 5 to 9 nM.

Source of the values: patent US20240158511A1 (GENERAL HOSPITAL, published 2024).
